The results in this text go back to patent publication US20200283528A1 (NUMAB THERAPEUTICS, published 2020).

As usually defined, the IC50 is the concentration at which inhibition is half-maximal. As a reminder, the Kd is the equilibrium constant for the complex coming apart. The term koff denotes the rate constant with which the complex falls apart. The term kon denotes a measure of how fast the partners come together. Broadly, the EC50 is the concentration that produces a half-maximal response. Low values mean greater potency, high ones weaker potency.

Experiment [1] deals with T1, human PDL1 expressed on cells (human, UniProt Q9NZQ7 19-290). As to the kind of experiment: cell-based or functional assay.
Experiment [2] deals with T2, human PDL1 (recombinant, soluble) (human, UniProt Q9NZQ7 19-238).
T2 construct: also called hPDL1; hPD-L1
As to the kind of experiment: PDL1/PD-1 competition ELISA with human serum albumin. The procedure:
(§1) ELISA microplates coated overnight at 4° C. with 4 μg/ml human PD-1 were washed three times with 450 μl wash buffer per well. Plates were blocked for 1 hour at room temperature by adding 300 μl of PBS with 1% BSA and 0.2% tween (dilution buffer) to each well. […] The mixtures were pre-incubated for 1 hour at room temperature under gentle agitation on a rotating mixer (21 rpm) and added to the microplates after 3 wash cycles with 450 μl wash buffer per well. Plates were incubated for 1.5 hours at room temperature under gentle agitation, then 10 ng/ml streptavidin-polyHRP40 was added to each microplate well after three washes with 450 μl of wash buffer per well. After 1 h incubation at RT, plates were washed three times with 450 μl wash buffer and TMB substrate solution was added. The enzymatic reaction was stopped after 6 minutes by addition of 1 M HCl and absorbance was measured at 450 nm using 690 nm as a reference wavelength. For calculation of IC₅₀ values, a four-parameter logistic (4PL) curve fit was performed in Graph Pad Prism using reference subtracted values.
A general note: An ELISA detects its analyte on a solid surface through an enzyme-linked reagent.

The target in experiment [3] is T2, human PDL1 (recombinant, soluble). The experiment can be described thus: PDL1/PD-1 competition ELISA; PD-1 coated, biotinylated PDL1 1 ng/ml. The procedure: as §1
Experiment [4] shares this target. The experiment can be described thus: PDL1/B7-1 competition ELISA; B7-1 coated, biotinylated PDL1 40 ng/ml. The protocol:
as §1, with “B7-1” for “PD-1”

Experiment [5] shares this target. As to the kind of experiment: PD-1/PDL1 competition ELISA in the presence of 1 mg/ml human serum albumin: biotinylated human PDL1 pre-incubated with the inhibitor, then binding to plate-coated human PD-1; blocked ligand PD-1. The procedure:
as §1

The target in experiment [6] is T1, human PDL1 expressed on cells. The experiment can be described thus: cell-based or functional assay. This is another data set of the same source.
Experiment [7] concerns the target T2, human PDL1 (recombinant, soluble). The experiment can be described thus: PDL1/PD-1 competition ELISA; PD-1 coated; scFv. The protocol: (§2) ELISA plates were coated by adding 50 μl of PBS containing 4 μg/ml PD-1 overnight at 4° C. Next day, plates were washed three times in overflow mode with 450 μl wash buffer (PBS, 0.005% Tween 20) per wells and 300 μl of blocking buffer (PBS, 1% BSA, 0.2% Tween 20) were added to each well for 1 h at RT on a nutating mixer. […] ELISA pates were washed 3 times in overflow mode with 450 μl wash buffer and two times 50 μl of each dilution was added in adjacent wells of the ELISA plates in order to generate duplicates. Plates were incubated 90 minutes at RT under gentle agitation. After three washes with 450 μl of washing buffer, 50 μl of 10 ng/ml streptavidin-polyHRP40 were added to each wells of the ELISA plates. After 1 h incubation at RT, plates were washed three times with 450 μl wash buffer and developed for 5 to 10 minutes after addition of 50 μl TMB. Finally, the enzymatic reaction was stopped by addition of 50 μl of 1 M HCl and plate was read at 450 nm using 690 nm as a reference wavelength.

The target is the same in experiment [8]. The experiment can be described thus: PDL1/B7-1 competition ELISA; B7-1 coated; scFv. The procedure: as §2, with “μg/ml B7-1” for “μg/ml PD-1”, “of” for “of 10 ng/ml”, “streptavidin-polyHRP40 was” for “streptavidin-polyHRP40 were”, “ELISA plate.” for “ELISA plates.”
The next experiment concerns the target T3, Fc tagged human PDL1 (human, UniProt Q9NZQ7 19-238).
T3 construct: also called PDL1-Fc chimeric protein (human); not shown: Fc tag
As to the kind of experiment: SPR Biacore T200; Fc tagged PDL1 captured; scFv 0.12-30 nM. The procedure: (§3) After each analyte injection cycle, the CM5 sensor chip was regenerated and new antigen was captured. The scFvs were injected as analyte using a dose response multicycle kinetic assay with concentrations of the analyte ranging from 0.12 to 30 nM diluted in running buffer for 5 min and dissociation of the protein was allowed to proceed for 12 min. Obtained sensorgrams were fitted using the 1:1 binding model.

In another experiment the target is T4, Fc tagged human PDL2 (human, UniProt Q9BQ51 20-219).
T4 construct: not shown: Fc tag
T4 sequence (looked up): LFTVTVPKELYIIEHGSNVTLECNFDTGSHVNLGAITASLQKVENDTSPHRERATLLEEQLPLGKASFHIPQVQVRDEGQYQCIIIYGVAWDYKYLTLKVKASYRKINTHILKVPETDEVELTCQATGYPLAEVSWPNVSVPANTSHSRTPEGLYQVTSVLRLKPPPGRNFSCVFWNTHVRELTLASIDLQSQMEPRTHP
The experiment can be described thus: SPR Biacore T200; Fc tagged human PDL2 captured; scFv as analyte. The protocol: Humanized scFvs were tested for binding to PDL2 by SPR analysis on a T200 device (Biacore, GE Healthcare). In this experiment, Fc tagged human PDL2 was captured using the Human Antibody Capture kit from GE healthcare. After each analyte injection cycle the CM5 sensor chip was regenerated and new antigen was captured. The scFvs were injected as analyte at a concentration of 180 nM diluted in running buffer for 5 min and dissociation of the protein was allowed to proceed for 12 min.
(In general: SPR reads the build-up and loss of mass on a sensor chip optically.)

Experiment [9] concerns the target cynomolgus PDL1, recombinant (Sino Biological) / PDL1-Fc chimeric protein (cynomolgus (Macaca fascicularis), UniProt G7PSE7 19-238). As to the kind of experiment: SPR Biacore T200; cynomolgus PDL1 (Sino Biological) captured; scFv as analyte. The procedure:
as §3

The target in experiment [10] is T1, human PDL1 expressed on cells. As to the kind of experiment: flow cytometry on CHO-PDL1 cells; scFv detected by APC labelled protein-L.

Chain of cynomolgus PDL1, recombinant (Sino Biological) / PDL1-Fc chimeric protein (G7PSE7 entry or part of it mutant limits assumed): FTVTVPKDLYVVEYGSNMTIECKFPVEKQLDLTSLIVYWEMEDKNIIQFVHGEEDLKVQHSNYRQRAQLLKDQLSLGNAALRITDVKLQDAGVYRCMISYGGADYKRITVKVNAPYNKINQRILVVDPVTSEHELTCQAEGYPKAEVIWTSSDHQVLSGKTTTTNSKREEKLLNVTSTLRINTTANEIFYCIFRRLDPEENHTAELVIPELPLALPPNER

B1: PRO1057 (38_02_A04 sc01 scDb-i/33-03-G02 sc01 scDb-o/mxr HSA (23-13-A01-sc03, sk17sh4)) (other)
chain: DIQMTQSPSSLSASVGDRVTITCQASQSINDYLAWYQQKPGKAPKLLIYKASTLASGVPSRFSGSGSGTDFTLTISSLQPEDFATYYCQQGYIITDIDNVFGTGTKVTVLGGGGGSQVQLQESGPGLVKPSETLSLTCKVSGFSFSNSYWICWIRQPPGKGLEWIGCTFVGSSDSTYYANWAKGRVTISVDSSKNQFSLKLSSVTAADTAVYYCARHPSDAVYGYANNLWGQGTLVTVSSGGGGSGGGGSGGGGSGGGGSIQMTQSPSSLSASVGDRVTITCQASQSINNVLAWYQQKPGKAPKLLIYRASTLASGVPSRFSGSGSGTDFTLTISSLQPEDFATYYCQSSYGNYGDFGTGTKVTVLGGGGGSQVQLQESGPGLVKPSETLSLTCKVSGFSFSSGYDMCWIRQPPGKGLEWIGCVVAGSVDITYYASWAKGRVTISVDSSKNQFSLKLSSVTAADTAVYYCARKDAYSDAFNLWGQGTLVTVSSGGGGSGGGGSVVMTQSPSSLSASVGDRVTITCQASQIISSRSAWYQQKPGQPPKLLIYQASKLASGVPSRFSGSGSGTDFTLTISSLQPEDFATYYCQCTYIDSNFGAFGGGTKLTVLGGGGGSGGGGSGGGGSGGGGSEVQLVESGGGLVQPGGSLRLSCAASGFSFSSSYWICWVRQAPGKGLEWVGCVFTGDGTTYYASWAKGRFTISRDNSKNTVYLQMNSLRAEDTATYFCARPVSVYYYGMDLWGQGTLVTVSS
In the case of B1, in [1], the “NF-AT potency assay IC50 (with HSA)” value turned out to be 665 ng/mL. Also, in [2], the “fold higher IC50 in presence of human serum albumin” value is roughly 2 fold. Moreover, the IC50 stood at 8.61 ng/mL in experiment [3] and 16.3 ng/mL in [4]. The “IC50 (read off the curve)” value in experiment [5] is roughly 20 ng/mL.

B2: PRO1392 (33-03-G02-sc18 scFv) (scFv)
scFv: DIQMTQSPSSLSASVGDRVTITCQASQSINDYLAWYQQKPGKAPKLLIYKASTLASGVPSRFSGSGSGTDFTLTISSLQPEDFATYYCQQGYIITDIDNVFGTGTKVTVLGGGGGSGGGGSGGGGSGGGGSQVQLQESGPGLVKPSETLSLTCKASGFSFSSGYDMCWVRQPPGKGLEWIACVVAGSVDITYYASWAKGRVTISKDSSKNQVSLKLSSVTAADTAVYYCARKDAYSDAFNLWGQGTLVTVSS
Take B2: in [6], the “reporter gene assay IC50” value stood at 12 ng/mL and the “reporter gene assay Maximum Inhibition (%)” value worked out at 96.7%. In [7], the IC50 was found to be 0.47 ng/mL and the “Maximum Inhibition (%)” value came out at 99.9%. In [8], the IC50 stood at 1.19 ng/mL and the “Maximum Inhibition (%)” value turned out to be 93.2%. In the experiment with Fc tagged human PDL1, this molecule returned a Kd of 0.00994 nM, an off-rate constant (koff) of 6.16e-05 s⁻¹ and a kon of 6.19e+06 M⁻¹ s⁻¹. In addition, in the experiment with Fc tagged human PDL2, the binding result is “no binding (tested: 180 nM)”. In experiment [9], the “KD, cyno/KD, human” value came out at 2; the Kd worked out at 0.0199 nM; the koff was 8.87e-05 s⁻¹; the kon worked out at 4.45e+06 M⁻¹ s⁻¹.

B3: PRO1183 (33-03-G02-sc03 scFv) (scFv)
scFv: DFQLTQSPSSLSASVGDRVTITCQASQSINDYLAWYQQKPGKSPKLLIYKASTLASGVPSRFSGSGSGTDFTLTISSLQPEDFATYYCQQGYIITDIDNVFGTGTKVTVLGGGGGSGGGGSGGGGSGGGGSQSQLQESGPGLVKPSETLSLTCKASGFSFSSGYDMCWVRQPPGKGLEWIACVVAGSVDITYYASWAKGRVTISKDSSKNQVSLKLSSVTAADTAVYFCARKDAYSDAFNLWGQGTLVTVSS
notes: also called 33_03_G02 sc03 Full
Consider B3, for which, in experiment [6], the “reporter gene assay IC50” value is 9.98 ng/mL and the “reporter gene assay Maximum Inhibition (%)” value came out at 102%. For the same molecule, in experiment [7], the IC50 was determined as 0.36 ng/mL and the “Maximum Inhibition (%)” value turned out to be 99.8%. For the same molecule, in experiment [8], the IC50 came to 0.977 ng/mL and the “Maximum Inhibition (%)” value was determined as 95.4%. In the experiment with Fc tagged human PDL1, the dissociation constant (Kd) is less than 0.0021 nM, the koff was less than 1e-05 s⁻¹ and the kon worked out at 4.77e+06 M⁻¹ s⁻¹. In the experiment with Fc tagged human PDL2, the binding result is listed as “no binding (tested: 180 nM)”. Besides, in experiment [9], the “KD, cyno/KD, human” value was less than 5.58; the Kd is 0.0117 nM; the off-rate (koff) came to 1.82e-05 s⁻¹; the kon worked out at 1.55e+06 M⁻¹ s⁻¹.

B4: PRO830 (33-03-G02-sc01 scFv) (scFv)
scFv: DIQMTQSPSSLSASVGDRVTITCQASQSINDYLAWYQQKPGKAPKLLIYKASTLASGVPSRFSGSGSGTDFTLTISSLQPEDFATYYCQQGYIITDIDNVFGTGTKVTVLGGGGGSGGGGSGGGGSGGGGSQVQLQESGPGLVKPSETLSLTCKVSGFSFSSGYDMCWIRQPPGKGLEWIGCVVAGSVDITYYASWAKGRVTISVDSSKNQFSLKLSSVTAADTAVYYCARKDAYSDAFNLWGQGTLVTVSS
notes: also called 33-03-G02 CDR
For the molecule B4, in experiment [6], the “reporter gene assay IC50” value came out at 37.5 ng/mL and the “reporter gene assay Maximum Inhibition (%)” value was 105%. Besides, the “NF-AT potency assay IC50” value in experiment [1] amounted to 42.9 ng/mL. Further, in [7], the IC50 turned out to be 3.45 ng/mL and the “Maximum Inhibition (%)” value turned out to be 99.8%. In experiment [8], the IC50 stood at 6.11 ng/mL and the “Maximum Inhibition (%)” value was determined as 94.5%. The same molecule came in with a koff in the experiment with Fc tagged human PDL1 of 0.000159 s⁻¹. For the same molecule, in [3], the 50% inhibitory concentration (IC50) stood at 3.4 ng/mL. In [4], the IC50 stood at 12.9 ng/mL. Moreover, it took 20.2 ng/mL to reach a half-maximal effect in experiment [10] (EC50). For the same molecule, in [9], the “KD, cyno/KD, human” value came out at 0.97; the Kd worked out at 0.074 nM; the koff was 0.000182 s⁻¹; the kon came to 2.46e+06 M⁻¹ s⁻¹.
